# Results taken from patent publication US20190241661A1.
# How the values were obtained:
# [1] = biological target: CD46, human (human) (UniProt P15529); experiment: flow cytometry; directly labelled antibody on siRNA knockdown SK-OV-3 cells
# [2] = biological target: CD46, human (human) (UniProt P15529); experiment: flow cytometry; directly labelled antibody on wild-type SK-OV-3 cells
# [3] = biological target: CD59, human (human) (UniProt P13987); experiment: flow cytometry; directly labelled antibody on siRNA knockdown SK-OV-3 cells
# Chain of UniProt P13987 (P13987 26-102): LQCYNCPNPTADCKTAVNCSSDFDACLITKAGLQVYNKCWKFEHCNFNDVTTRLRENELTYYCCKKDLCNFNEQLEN
# [4] = biological target: CD59, human (human) (UniProt P13987); experiment: flow cytometry; directly labelled antibody on wild-type SK-OV-3 cells
# [5] = biological target: CD55, human (human) (UniProt P08174); experiment: flow cytometry; directly labelled antibody on siRNA knockdown SK-OV-3 cells
# Chain of UniProt P08174 (P08174 35-353): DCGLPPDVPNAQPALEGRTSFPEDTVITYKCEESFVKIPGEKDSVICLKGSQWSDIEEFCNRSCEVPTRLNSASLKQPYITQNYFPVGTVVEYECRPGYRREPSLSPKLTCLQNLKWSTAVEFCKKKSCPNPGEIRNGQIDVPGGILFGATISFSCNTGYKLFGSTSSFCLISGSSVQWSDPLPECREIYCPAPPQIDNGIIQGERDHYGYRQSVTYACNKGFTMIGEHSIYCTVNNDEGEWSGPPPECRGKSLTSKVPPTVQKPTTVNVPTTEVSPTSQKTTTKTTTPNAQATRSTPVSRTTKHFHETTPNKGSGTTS
# [6] = biological target: CD55, human (human) (UniProt P08174); experiment: flow cytometry; directly labelled antibody on wild-type SK-OV-3 cells
# [7] = biological target: CD46, human (human) (UniProt P15529); experiment: FACS titration on carcinoma cells, secondary antibody; dilution 1/10000, final 0.01 µg/ml
# [8] = biological target: CD46, human (human) (UniProt P15529); experiment: FACS titration on carcinoma cells, secondary antibody; dilution 1/1000, final 0.1 µg/ml
# [9] = biological target: CD46, human (human) (UniProt P15529); experiment: FACS titration on carcinoma cells; dilution just sufficient for a saturated staining
# [10] = biological target: CD46, human (human) (UniProt P15529); experiment: FACS titration on carcinoma cells, secondary antibody; dilution 1/100, final 1 µg/ml
# [11] = biological target: CD46, human (human) (UniProt P15529); experiment: FACS titration on carcinoma cells, secondary antibody; dilution 1/500, final 0.2 µg/ml
# [12] = biological target: CD46, human (human) (UniProt P15529); experiment: FACS titration on carcinoma cells, secondary antibody; dilution 1/10, final 10 µg/ml
# [13] = biological target: CD46, human (human) (UniProt P15529); experiment: FACS titration on carcinoma cells, secondary antibody; dilution 1/5000, final 0.02 µg/ml
# [14] = biological target: CD46, human (human) (UniProt P15529); experiment: FACS titration on carcinoma cells, secondary antibody; dilution 1/10000, final 0.1 µg/ml
# [15] = biological target: CD46, human (human) (UniProt P15529); experiment: FACS titration on carcinoma cells, secondary antibody; dilution 1/1000, final 1 µg/ml
# [16] = biological target: CD46, human (human) (UniProt P15529); experiment: FACS titration on carcinoma cells, secondary antibody; dilution 1/100, final 10 µg/ml
# [17] = biological target: CD46, human (human) (UniProt P15529); experiment: FACS titration on carcinoma cells, secondary antibody; dilution 1/5000, final 0.2 µg/ml
# [18] = biological target: CD46, human (human) (UniProt P15529); experiment: FACS titration on carcinoma cells, secondary antibody; dilution 1/10, final 100 µg/ml
# [19] = biological target: CD46, human (human) (UniProt P15529); experiment: FACS titration on carcinoma cells, secondary antibody; dilution 1/500, final 2 µg/ml
# [20] = biological target: CD55, human (human) (UniProt P08174); experiment: FACS titration on carcinoma cells, secondary antibody; dilution 1/10000, final 0.1 µg/ml
# [21] = biological target: CD55, human (human) (UniProt P08174); experiment: FACS titration on carcinoma cells, secondary antibody; dilution 1/1000, final 1 µg/ml
# [22] = biological target: CD55, human (human) (UniProt P08174); experiment: FACS titration on carcinoma cells; dilution just sufficient for a saturated staining
# [23] = biological target: CD55, human (human) (UniProt P08174); experiment: FACS titration on carcinoma cells, secondary antibody; dilution 1/100, final 10 µg/ml
# [24] = biological target: CD55, human (human) (UniProt P08174); experiment: FACS titration on carcinoma cells, secondary antibody; dilution 1/5000, final 0.2 µg/ml
# [25] = biological target: CD55, human (human) (UniProt P08174); experiment: FACS titration on carcinoma cells, secondary antibody; dilution 1/10, final 100 µg/ml
# [26] = biological target: CD55, human (human) (UniProt P08174); experiment: FACS titration on carcinoma cells, secondary antibody; dilution 1/500, final 2 µg/ml
# [27] = biological target: CD59, human (human) (UniProt P13987); experiment: FACS titration on carcinoma cells, secondary antibody; dilution 1/10000, final 0.1 µg/ml
# [28] = biological target: CD59, human (human) (UniProt P13987); experiment: FACS titration on carcinoma cells, secondary antibody; dilution 1/1000, final 1 µg/ml
# [29] = biological target: CD59, human (human) (UniProt P13987); experiment: FACS titration on carcinoma cells; dilution just sufficient for a saturated staining
# [30] = biological target: CD59, human (human) (UniProt P13987); experiment: FACS titration on carcinoma cells, secondary antibody; dilution 1/100, final 10 µg/ml
# [31] = biological target: CD59, human (human) (UniProt P13987); experiment: FACS titration on carcinoma cells, secondary antibody; dilution 1/5000, final 0.2 µg/ml
# [32] = biological target: CD59, human (human) (UniProt P13987); experiment: FACS titration on carcinoma cells, secondary antibody; dilution 1/10, final 100 µg/ml
# [33] = biological target: CD59, human (human) (UniProt P13987); experiment: FACS titration on carcinoma cells, secondary antibody; dilution 1/500, final 2 µg/ml
# Chain of UniProt P15529 (P15529 35-392): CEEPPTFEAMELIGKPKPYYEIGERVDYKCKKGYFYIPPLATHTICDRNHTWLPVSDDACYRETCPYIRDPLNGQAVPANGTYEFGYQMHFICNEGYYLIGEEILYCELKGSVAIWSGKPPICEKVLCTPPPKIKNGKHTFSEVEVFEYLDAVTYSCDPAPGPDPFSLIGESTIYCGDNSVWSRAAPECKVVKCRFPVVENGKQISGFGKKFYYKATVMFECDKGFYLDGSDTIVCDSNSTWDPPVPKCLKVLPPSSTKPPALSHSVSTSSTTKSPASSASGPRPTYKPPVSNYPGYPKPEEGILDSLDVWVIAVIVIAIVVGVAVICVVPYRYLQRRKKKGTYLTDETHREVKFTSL
substance,measurement,setting,value
"anti-CD46-FITC antibody (BD Pharmingen, Cat. No. 555949)",FACS signal (FITC),[1],662 FITC signal
same,FACS signal (FITC),[2],683 FITC signal
"anti-CD59-PE antibody (BD Pharmingen, Cat. No. 555764)",FACS signal (PE),[3],649 PE signal
same,FACS signal (PE),[4],1190 PE signal
"anti-CD-55-APC antibody (BD Pharmingen, Cat. No. 555696)",FACS signal (APC),[5],275 APC signal
same,FACS signal (APC),[6],1450 APC signal
"anti-human CD46 antibody #383, clone M177 (Hycult, HM2103)",Geom. Mean. FITC (geom. mean FITC),[7],14000
same,Geom. Mean. FITC (geom. mean FITC),[8],50000
same,1x conc. (1-time saturating concentration),[9],0.3 µg/mL
same,Geom. Mean. FITC (geom. mean FITC),[10],81800
same,Geom. Mean. FITC (geom. mean FITC),[11],74000
same,Geom. Mean. FITC (geom. mean FITC),[12],84000
same,Geom. Mean. FITC (geom. mean FITC),[13],15800
"anti-human CD46 antibody #386, clone MEM258 (AbD Serotec, MCA2113)",Geom. Mean. FITC (geom. mean FITC),[14],53500
same,Geom. Mean. FITC (geom. mean FITC),[15],75200
same,1x conc. (1-time saturating concentration),[9],0.2 µg/mL
same,Geom. Mean. FITC (geom. mean FITC),[16],79500
same,Geom. Mean. FITC (geom. mean FITC),[17],66400
same,Geom. Mean. FITC (geom. mean FITC),[18],87600
same,Geom. Mean. FITC (geom. mean FITC),[19],75500
"anti-human CD55 antibody #387, clone BRIC216 (AbD Serotec, MCA914)",Geom. Mean. FITC (geom. mean FITC),[20],24100
same,Geom. Mean. FITC (geom. mean FITC),[21],25100
same,1x conc. (1-time saturating concentration),[22],0.1 µg/mL
same,Geom. Mean. FITC (geom. mean FITC),[23],26900
same,Geom. Mean. FITC (geom. mean FITC),[24],23700
same,Geom. Mean. FITC (geom. mean FITC),[25],32000
same,Geom. Mean. FITC (geom. mean FITC),[26],25200
"anti-human CD59 antibody #384, clone MEM43 (antibodies online, ABIN118751)",Geom. Mean. FITC (geom. mean FITC),[27],82400
same,Geom. Mean. FITC (geom. mean FITC),[28],95500
same,1x conc. (1-time saturating concentration),[29],0.2 µg/mL
same,Geom. Mean. FITC (geom. mean FITC),[30],95500
same,Geom. Mean. FITC (geom. mean FITC),[31],94000
same,Geom. Mean. FITC (geom. mean FITC),[32],95200
same,Geom. Mean. FITC (geom. mean FITC),[33],95500
"anti-human CD59 antibody #385, clone YTH53.1 (AbD Serotec, MCA715G)",Geom. Mean. PE (geom. mean PE),[27],50100
same,Geom. Mean. PE (geom. mean PE),[28],60500
same,1x conc. (1-time saturating concentration),[29],0.1 µg/mL
same,Geom. Mean. PE (geom. mean PE),[30],64200
same,Geom. Mean. PE (geom. mean PE),[31],53800
same,Geom. Mean. PE (geom. mean PE),[32],55400
same,Geom. Mean. PE (geom. mean PE),[33],62700
